From US12331106B2, “Anti-angiopoietin-2 antibodies that induce Tie2 activation” (Institute for Basic Science, priority 2018, dated 2025)

Legend:
[1] = test system: tumor vessels of LLC tumor; assay: Tumor vessel perfusion (lectin) and hypoxia (Hypoxyprobe) in LLC tumors; format: in vivo, C57BL/6 mice; settings: compared with Fc or Fc+Cpt
Experimental: To analyze the functionality of tumor vessels after treatment with 2C8H11, vessel perfusability and hypoxia status were evaluated. Before harvesting tumor mass, the mice were intravenously injected with 100 μl of DyLight™ 488-Lectin (Vector laboratory) and intraperitoneally injected with 60 mg/kg of Pimonidazole-HCl (HYPOXYPROBE™+) dissolved in PBS for 30 min before sacrifice. The mice were perfusion-fixed with 4% PFA. We obtained frozen sections from the tumor mass, which were stained with hamster anti-CD31 antibody (1:200, Millipore®) and 4.3.11.3 mouse Pacific blue-Mab (1:50, HYPOXYPROBE™+) in PBS. The sections were imaged using LSM880 confocal microscope (Zeiss), and the obtained images were analyzed using ImageJ software (http://rsb.info.nih.gov/ij) to quantify Lectin+area/CD31+area and HYPOXYPROBE™+area.
Furthermore, hypoxia, as indicated by HYPOXYPROBE™+area, was decreased in tumors treated with 2C8H11 or 2C8H11+Cpt by 72%, when compared with tumors treated with Fc or Fc+Cpt (FIG. 11C).

[2] = test system: choroidal neovascularization (CNV); assay: Laser-induced CNV model, intravitreal injection: CNV regression and vascular leakage; format: in vivo, mice; settings: 5 μg intravitreal at 7 days
Experimental: 2C8H11 antibody was tested for its ability to inhibit choroidal neovascularization (CNV), the hallmark of wet age-related macular degeneration (AMD) using laser-induced CNV model. After dilation of pupils with 5 mg/ml phenylephrine and 5 mg/ml tropicamide eye drops (Santen Pharmaceutical) and instillation of 0.5% proparacaine hydrochloride eye drops (Alcon) for topical anesthesia, laser photocoagulator (Lumenis Inc.) with a slit lamp delivery system was used with a glass coverslip as a contact lens to visualize the retina. Sufficient laser energy (532 nm wavelength, 250 mW power, 100 ms duration, 50 μm spot size) was delivered in 4 locations for each eye (the 3, 6, 9 and 12 o'clock positions of the posterior pole). Only burns that produced a bubble at the time of laser photocoagulation, indicating the rupture of the Bruch's membrane, were included in this study. Spots containing hemorrhage at the laser site were excluded from the analysis. To recapitulate a clinical situation, 2C8H11 (5 μg) was administered intravitreally to the mice at 7 days after laser photocoagulation (FIG. 13A). As a control or as for comparison, Fc or VEGF-Trap (5 μg each) was administered in the same manner to the mice. To intravitreally administer indicated reagents, ˜1 μl (5 mg/ml) containing 5 μg of each reagent was injected into the vitreal cavity using the Nanoliter 2000 micro-injector (World Precision Instruments) fitted with a glass capillary pipette. CD31+CNV volumes of the retinal pigment epithelium (RPE)-choroid-sclera flat mounts were calculated using the MATLAB® Image Processing Toolbox™ (Math Works, a comprehensive set of reference-standard algorithms and workflow apps for image processing, analysis, visualization, and algorithm development) at 14 days after laser photocoagulation. Anti-CD31 antibody (1:200, Millipore®) was used for the detection of endothelial cells of CNV. […] Combined fluorescein angiography (FA) and indocyanine green angiography (ICGA) enabled us to measure vascular leakage at the neovessels around the laser injury site. Continuous-wave laser modules at 488 nm and 785 nm were used as excitation sources for fluorescein and ICG, respectively. A raster scanning pattern of excitation lasers was achieved by a scanner system consisting of a rotating polygonal mirror (MC-5; Lincoln Laser) and a galvanometer-based scanning mirror (6230H; Cambridge technology), and delivered to the back aperture of an imaging lens. A high numerical aperture (NA) objective lens (PlanApo λ, NA 0.75; Nikon) was used as the imaging lens to provide wide-field fundus fluorescence images. Fluorescence signals detected by photomultiplier tubes (R9110; Hamamatsu Photonics) were digitized by frame grabber and reconstructed to images with size of 512×512 pixels per frame in real time. To visualize late-phase (6 min) FA and ICGA images utilizing the angiography system, 10 mg of fluorescein sodium (Alcon) and 0.15 mg of ICG (Daiichi Pharmaceutical) were administered intraperitoneally and intravenously, respectively. The imaging procedure was performed under systemic anesthesia and pupil dilation to improve the quality of images. Leaky areas from CNV were calculated as the total measured hyperfluorescent areas in FA images divided by the total measured CNV areas in ICGA images using a Java-based imaging software (ImajeJ; National Institutes of Health). […] Thus, the magnitude of the suppression of CNV and vascular leakage was quantitatively indistinguishable between VEGF-Trap and 2C8H11 in the mouse model of laser-induced CNV.

B1: 2C8H11: humanized anti-Ang2 human IgG1 antibody from mouse 2C8; VH SEQ ID NO: 55, VL SEQ ID NO: 56 (antibody, V domains shown)
VH: QVQLVQSGAEVKKPGASVKVSCKASGYTFTSYWMHWVRQAPGQGLEWMGMIDPSDSETRLNQKFKDRVTMTRDTSTSTVYMELSSLRSEDTAVYYCARRFYYGSDWYFDVWGQGTLVTVSS
VL: DIQLTQSPSFLSASVGDRVTITCKASQDVGTAVAWYQQKPGKAPKLLIYWASTRHTGVPSRFSGSGSGTEFTLTISSLQPEDFATYYCQQYSSYPLTFGQGTKVEIK
modifications: human IgG1 constant regions; VH; VL
hypoxia decrease (HYPOXYPROBE+ area) [1]: 72% | increase in perfusion (Lectin+ area/CD31+ area) [1]: approximately 3 fold | vascular leakage suppression compared with Fc ([2]; FA/ICGA, 14 days after laser photocoagulation): 38.3% | CNV regression compared with Fc (CD31+ CNV volume) ([2]; measured 14 days after laser photocoagulation): 65.3% | vascular leakage reduction between 6 and 14 days after laser photocoagulation ([2]; within-group): 50.0%
